# Test results taken from patent publication US20230002480A1.
# B1: N49P23 (antibody, V domains shown)
# VH: QVRLVQSGAGARKTGASMKLSCSTSGYTFTTHHGHFINWVRQARGQGLEWMGWMNPMTGQMNIEGKFQGRVTLTRDIYSDTAYMEMTRLTTGDTGTYYCARGDFGQNYPFHYWGQGSLVIVSS
# VL: LSALTQPASVSGSPGQSVTISCSGTNRYLVSWYQQHPDKAPKLIIYDDNKRPSGISDRFSASRPDDTASLTISGLQTGDEATYWCASYERFGGGTRLTVLS
# B2: N49P22 (antibody, V domains shown)
# V domain 1: HIQLLQSGPQVKKSGDTVRISCETSGYNFVDSRIHWVRQTPEKRLRWMGWINPLQGGVNYAPEFQGRIRMTRDTFIDTVYVDLSGLTPADTAYYYCARGIDGKSYPFHFWGHGTRVTVFS
# V domain 2: RFALTQPASVSGSPGQTITITCAGGSVSWFHFPPGKTPRLIIYESSKRPSGVSPRFSGSQSGSTASLIISGLQSDDEGTYFCSILEFFGRGTLVTVLS
# Tests used:
# Assay in all cases: cell-based or functional assay
# [1] = biological target: HIV-1 Env of pseudovirus CAP45.2.00.G3 (HIV-1)
# [2] = biological target: HIV-1 Env of pseudovirus 3415.v1.c1 (HIV-1)
# [3] = biological target: HIV-1 Env of pseudovirus 3103.v3.c10 (HIV-1)
# [4] = biological target: HIV-1 Env of pseudovirus Ce1172_H1 (HIV-1)
# [5] = biological target: HIV-1 Env of pseudovirus HIV-0013095-2.11 (HIV-1)
# [6] = biological target: HIV-1 Env of pseudovirus 9004SS_A3_4 (HIV-1)
# [7] = biological target: HIV-1 Env of pseudovirus CNE20 (HIV-1)
# [8] = biological target: HIV-1 Env of pseudovirus Ce1086_B2 (HIV-1)
# [9] = biological target: HIV-1 Env of pseudovirus BJOX028000.10.3 (HIV-1)
# [10] = biological target: HIV-1 Env of pseudovirus QH0692.42 (HIV-1)
# [11] = biological target: MuLV envelope (negative control pseudovirus)
# [12] = biological target: HIV-1 Env of pseudovirus T255-34 (HIV-1)
# [13] = biological target: HIV-1 Env of pseudovirus A07412M1.vrc12 (HIV-1)
# [14] = biological target: HIV-1 Env of pseudovirus 620345.c01 (HIV-1)
# [15] = biological target: HIV-1 Env of pseudovirus 191955_A11 (HIV-1)
# [16] = biological target: HIV-1 Env of pseudovirus X2088_c9 (HIV-1)
# [17] = biological target: HIV-1 Env of pseudovirus CNE52 (HIV-1)
# [18] = biological target: HIV-1 Env of pseudovirus 6480.v4.c25 (HIV-1)
# [19] = biological target: HIV-1 Env of pseudovirus 246F C1G (HIV-1)
# [20] = biological target: HIV-1 Env of pseudovirus CNE17 (HIV-1)
# [21] = biological target: HIV-1 Env of pseudovirus 0260.v5.c36 (HIV-1)
# [22] = biological target: HIV-1 Env of pseudovirus 231966.c02 (HIV-1)
# [23] = biological target: HIV-1 Env of pseudovirus PVO.4 (HIV-1)
# [24] = biological target: HIV-1 Env of pseudovirus 6952.v1.c20 (HIV-1)
# [25] = biological target: HIV-1 Env of pseudovirus 211-9 (HIV-1)
# [26] = biological target: HIV-1 Env of pseudovirus 6545.v4.c1 (HIV-1)
# [27] = biological target: HIV-1 Env of pseudovirus CNE5 (HIV-1)
# [28] = biological target: HIV-1 Env of pseudovirus CAP210.2.00.E8 (HIV-1)
# [29] = biological target: HIV-1 Env of pseudovirus R3265.c06 (HIV-1)
# [30] = biological target: HIV-1 Env of pseudovirus CNE53 (HIV-1)
# [31] = biological target: HIV-1 Env of pseudovirus X2131_C1_B5 (HIV-1)
# [32] = biological target: HIV-1 Env of pseudovirus C4118.c09 (HIV-1)
# [33] = biological target: HIV-1 Env of pseudovirus 7030102001E5(Rev-) (HIV-1)
binder,measurement,setting,value
B1,IC50,[1],> 50 µg/mL
same,IC80,[1],> 50 µg/mL
same,MPI,[1],0
same,IC50,[2],0.054 µg/mL
same,IC80,[2],0.19 µg/mL
same,MPI,[2],100
same,IC50,[3],43.8 µg/mL
same,IC80,[3],> 50 µg/mL
same,MPI,[3],54
same,IC50,[4],> 50 µg/mL
same,IC80,[4],> 50 µg/mL
same,MPI,[4],0
same,IC50,[5],0.114 µg/mL
same,IC80,[5],0.899 µg/mL
same,MPI,[5],96
same,IC50,[6],0.043 µg/mL
same,IC80,[6],0.223 µg/mL
same,MPI,[6],100
same,IC50,[7],45.4 µg/mL
same,IC80,[7],> 50 µg/mL
same,MPI,[7],51
same,IC50,[8],0.063 µg/mL
same,IC80,[8],0.303 µg/mL
same,MPI,[8],100
same,IC50,[9],0.021 µg/mL
same,IC80,[9],0.123 µg/mL
same,MPI,[9],98
same,IC50,[10],0.557 µg/mL
same,IC80,[10],2.51 µg/mL
same,MPI,[10],100
same,IC50,[11],> 50 µg/mL
same,IC80,[11],> 50 µg/mL
same,MPI,[11],9
same,IC50,[12],> 50 µg/mL
same,IC80,[12],> 50 µg/mL
same,MPI,[12],20
same,IC50,[13],0.114 µg/mL
same,IC80,[13],0.83 µg/mL
same,MPI,[13],97
same,IC50,[14],> 50 µg/mL
same,IC80,[14],> 50 µg/mL
same,MPI,[14],0
same,IC50,[15],> 50 µg/mL
same,IC80,[15],> 50 µg/mL
same,MPI,[15],31
same,IC50,[16],> 50 µg/mL
same,IC80,[16],> 50 µg/mL
same,MPI,[16],10
same,IC50,[17],0.014 µg/mL
same,IC80,[17],0.051 µg/mL
same,MPI,[17],100
same,IC50,[18],> 50 µg/mL
same,IC80,[18],> 50 µg/mL
same,MPI,[18],29
same,IC50,[19],> 50 µg/mL
same,IC80,[19],> 50 µg/mL
same,MPI,[19],11
same,IC50,[20],0.221 µg/mL
same,IC80,[20],0.809 µg/mL
same,MPI,[20],100
same,IC50,[21],0.261 µg/mL
same,IC80,[21],0.919 µg/mL
same,MPI,[21],100
same,IC50,[22],0.035 µg/mL
same,IC80,[22],0.158 µg/mL
same,MPI,[22],100
same,IC50,[23],0.087 µg/mL
same,IC80,[23],0.43 µg/mL
same,MPI,[23],100
same,IC50,[24],0.007 µg/mL
same,IC80,[24],0.023 µg/mL
same,MPI,[24],100
same,IC50,[25],> 50 µg/mL
same,IC80,[25],> 50 µg/mL
same,MPI,[25],14
same,IC50,[26],> 50 µg/mL
same,IC80,[26],> 50 µg/mL
same,MPI,[26],10
same,IC50,[27],0.058 µg/mL
same,IC80,[27],0.226 µg/mL
same,MPI,[27],100
same,IC50,[28],> 50 µg/mL
same,IC80,[28],> 50 µg/mL
same,MPI,[28],2
same,IC50,[29],> 50 µg/mL
same,IC80,[29],> 50 µg/mL
same,MPI,[29],0
same,IC50,[30],0.026 µg/mL
same,IC80,[30],0.095 µg/mL
same,MPI,[30],100
same,IC50,[31],0.08 µg/mL
same,IC80,[31],0.28 µg/mL
same,MPI,[31],100
same,IC50,[32],0.026 µg/mL
same,IC80,[32],0.12 µg/mL
same,MPI,[32],100
same,IC50,[33],0.172 µg/mL
same,IC80,[33],0.797 µg/mL
same,MPI,[33],100
B2,IC50,[1],> 50 µg/mL
same,IC80,[1],> 50 µg/mL
same,MPI,[1],0
same,IC50,[2],0.198 µg/mL
same,IC80,[2],1.41 µg/mL
same,MPI,[2],96
same,IC50,[3],> 50 µg/mL
same,IC80,[3],> 50 µg/mL
same,MPI,[3],16
same,IC50,[4],> 50 µg/mL
same,IC80,[4],> 50 µg/mL
same,MPI,[4],0
same,IC50,[5],> 50 µg/mL
same,IC80,[5],> 50 µg/mL
same,MPI,[5],9
same,IC50,[6],> 50 µg/mL
same,IC80,[6],> 50 µg/mL
same,MPI,[6],42
same,IC50,[7],> 50 µg/mL
same,IC80,[7],> 50 µg/mL
same,MPI,[7],18
same,IC50,[8],> 50 µg/mL
same,IC80,[8],> 50 µg/mL
same,MPI,[8],0
same,IC50,[9],> 50 µg/mL
same,IC80,[9],> 50 µg/mL
same,MPI,[9],0
same,IC50,[10],0.592 µg/mL
same,IC80,[10],2.02 µg/mL
same,MPI,[10],100
same,IC50,[11],> 50 µg/mL
same,IC80,[11],> 50 µg/mL
same,MPI,[11],8
same,IC50,[12],38.8 µg/mL
same,IC80,[12],> 50 µg/mL
same,MPI,[12],55
same,IC50,[13],9.6 µg/mL
same,IC80,[13],> 50 µg/mL
same,MPI,[13],63
same,IC50,[14],> 50 µg/mL
same,IC80,[14],> 50 µg/mL
same,MPI,[14],0
same,IC50,[15],> 50 µg/mL
same,IC80,[15],> 50 µg/mL
same,MPI,[15],9
same,IC50,[16],> 50 µg/mL
same,IC80,[16],> 50 µg/mL
same,MPI,[16],8
same,IC50,[17],1.7 µg/mL
same,IC80,[17],10 µg/mL
same,MPI,[17],91
same,IC50,[18],0.809 µg/mL
same,IC80,[18],32.1 µg/mL
same,MPI,[18],86
same,IC50,[19],> 50 µg/mL
same,IC80,[19],> 50 µg/mL
same,MPI,[19],10
same,IC50,[20],46.3 µg/mL
same,IC80,[20],> 50 µg/mL
same,MPI,[20],53
same,IC50,[21],1.67 µg/mL
same,IC80,[21],14.4 µg/mL
same,MPI,[21],93
same,IC50,[22],3.35 µg/mL
same,IC80,[22],> 50 µg/mL
same,MPI,[22],69
same,IC50,[23],0.433 µg/mL
same,IC80,[23],1.49 µg/mL
same,MPI,[23],100
same,IC50,[24],33.2 µg/mL
same,IC80,[24],> 50 µg/mL
same,MPI,[24],56
same,IC50,[25],> 50 µg/mL
same,IC80,[25],> 50 µg/mL
same,MPI,[25],18
same,IC50,[26],> 50 µg/mL
same,IC80,[26],> 50 µg/mL
same,MPI,[26],17
same,IC50,[27],0.281 µg/mL
same,IC80,[27],1.55 µg/mL
same,MPI,[27],96
same,IC50,[28],> 50 µg/mL
same,IC80,[28],> 50 µg/mL
same,MPI,[28],6
same,IC50,[29],3.58 µg/mL
same,IC80,[29],> 50 µg/mL
same,MPI,[29],67
same,IC50,[30],0.779 µg/mL
same,IC80,[30],5.11 µg/mL
same,MPI,[30],93
same,IC50,[31],> 50 µg/mL
same,IC80,[31],> 50 µg/mL
same,MPI,[31],44
same,IC50,[32],1.82 µg/mL
same,IC80,[32],26.6 µg/mL
same,MPI,[32],93
same,IC50,[33],> 50 µg/mL
same,IC80,[33],> 50 µg/mL
same,MPI,[33],21
